These results are taken from paper PMC7806223.

Assay [1] deals with LH1 αβ heterodimer (Rhodopseudomonas palustris CGA009) (UniProt Q6N9L4). Briefly: cryo-EM structure; RC-LH1_(14)-W complex purified from the PufW-His strain; in IMAC buffer (20 mM tris-HCl pH 8.0, 200 mM NaCl, 0.03% β-DDM); 2.65 Å.
The target is the same in assay [2]. Briefly: cryo-EM structure; RC-LH1_(16) complex purified from the ΔpufW strain (no protein-W); diluted in IMAC buffer (20 mM tris-HCl pH 8.0, 200 mM NaCl, 0.03% β-DDM); 2.80 Å.

In turn, “LH1 αβ heterodimer (from UniProt Q6N9L4 1-50; Q6N9L5 2-53) (complex)” yielded a stoichiometry N (αβ heterodimers in the open ring) in assay [1] of 14. This substance came in with a stoichiometry N (αβ heterodimers in the closed ring) in assay [2] of 16.
